Laboratory results: PMC10212944

Assays:
RPA (wild type) [1] = biological target: T1, RPA (wild type) (Homo sapiens, UniProt P27694;P15927;P35244 1-616;1-270;1-121); test: fluorescence anisotropy; stoichiometric binding; Stopped flow: 30 mM HEPES pH 7.8, 100 mM KCl, 5 mM MgCl2, 6% glycerol, 1 mM b-ME, 25 C; anisotropy: 50 mM Tris-acetate pH 7.5, 50 mM KCl, 5 mM MgCl2, 1 mM DTT; conditions: protein: recombinant; copies: 1;1;1; label: 5'-FAM
RPA S384D [2] = biological target: T2, RPA S384D (Homo sapiens, UniProt P27694;P15927;P35244 1-616;1-270;1-121, S384D); test: fluorescence anisotropy; stoichiometric binding; same as WT; Stopped flow: 30 mM HEPES pH 7.8, 100 mM KCl, 5 mM MgCl2, 6% glycerol, 1 mM b-ME, 25 C; anisotropy: 50 mM Tris-acetate pH 7.5, 50 mM KCl, 5 mM MgCl2, 1 mM DTT; conditions: protein: recombinant; copies: 1;1;1; label: 5'-FAM
T2 sequence (P27694 whole entry S384D, chain 1 of 3): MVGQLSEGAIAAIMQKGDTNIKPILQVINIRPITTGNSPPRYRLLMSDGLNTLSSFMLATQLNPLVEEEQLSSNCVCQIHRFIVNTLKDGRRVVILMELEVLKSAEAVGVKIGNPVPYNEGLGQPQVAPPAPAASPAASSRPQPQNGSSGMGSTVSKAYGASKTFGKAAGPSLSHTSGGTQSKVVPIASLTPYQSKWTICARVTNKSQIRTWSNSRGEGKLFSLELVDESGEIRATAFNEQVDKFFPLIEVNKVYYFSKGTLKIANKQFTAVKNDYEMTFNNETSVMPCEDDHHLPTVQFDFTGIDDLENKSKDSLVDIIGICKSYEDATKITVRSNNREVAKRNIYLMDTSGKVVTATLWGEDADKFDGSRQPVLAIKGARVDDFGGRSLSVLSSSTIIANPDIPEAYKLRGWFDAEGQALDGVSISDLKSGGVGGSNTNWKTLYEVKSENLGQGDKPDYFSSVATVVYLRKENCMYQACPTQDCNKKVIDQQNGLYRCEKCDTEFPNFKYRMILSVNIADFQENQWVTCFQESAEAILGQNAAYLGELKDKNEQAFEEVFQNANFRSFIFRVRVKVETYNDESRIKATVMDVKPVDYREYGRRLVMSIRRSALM
T2 sequence (P15927 whole entry, chain 2 of 3): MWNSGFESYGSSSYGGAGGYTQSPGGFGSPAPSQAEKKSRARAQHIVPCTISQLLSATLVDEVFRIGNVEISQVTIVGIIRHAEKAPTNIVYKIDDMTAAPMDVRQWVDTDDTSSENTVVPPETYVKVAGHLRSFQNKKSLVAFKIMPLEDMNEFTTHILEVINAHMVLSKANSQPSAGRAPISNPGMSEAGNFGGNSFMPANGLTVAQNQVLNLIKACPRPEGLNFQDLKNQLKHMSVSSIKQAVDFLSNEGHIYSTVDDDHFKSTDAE
T2 sequence (P35244 whole entry, chain 3 of 3): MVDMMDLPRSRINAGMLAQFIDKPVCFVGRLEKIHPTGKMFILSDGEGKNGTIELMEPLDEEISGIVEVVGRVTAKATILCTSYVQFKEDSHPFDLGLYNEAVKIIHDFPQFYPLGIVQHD

RPA S384D [3] = biological target: T2, RPA S384D; test: competition (facilitated exchange, stopped-flow FRET); displaces Cy3/Cy5-RPA, kFE 0.9 s-1; Stopped flow: 30 mM HEPES pH 7.8, 100 mM KCl, 5 mM MgCl2, 6% glycerol, 1 mM b-ME, 25 C; anisotropy: 50 mM Tris-acetate pH 7.5, 50 mM KCl, 5 mM MgCl2, 1 mM DTT; conditions: protein: recombinant; copies: 1;1;1
RPA (wild type) [4] = biological target: T1, RPA (wild type); test: competition (facilitated exchange, stopped-flow FRET); displaces Cy3/Cy5-RPA, kFE 1.8 s-1; Stopped flow: 30 mM HEPES pH 7.8, 100 mM KCl, 5 mM MgCl2, 6% glycerol, 1 mM b-ME, 25 C; anisotropy: 50 mM Tris-acetate pH 7.5, 50 mM KCl, 5 mM MgCl2, 1 mM DTT; conditions: protein: recombinant; copies: 1;1;1
RPA S384D [5] = biological target: T2, RPA S384D; test: size exclusion chromatography; major 1:1, minor 2:1 protein:DNA; Stopped flow: 30 mM HEPES pH 7.8, 100 mM KCl, 5 mM MgCl2, 6% glycerol, 1 mM b-ME, 25 C; anisotropy: 50 mM Tris-acetate pH 7.5, 50 mM KCl, 5 mM MgCl2, 1 mM DTT; conditions: protein: recombinant; copies: 1;1;1
RPA (wild type) [6] = biological target: T1, RPA (wild type); test: stopped-flow Trp fluorescence (koff/kon); kon 5.2e10 M-1 s-1, koff 39 s-1 as printed; Stopped flow: 30 mM HEPES pH 7.8, 100 mM KCl, 5 mM MgCl2, 6% glycerol, 1 mM b-ME, 25 C; anisotropy: 50 mM Tris-acetate pH 7.5, 50 mM KCl, 5 mM MgCl2, 1 mM DTT; conditions: protein: recombinant; copies: 1;1;1

T1 sequence (P27694 whole entry, chain 1 of 3): as the sequence (P27694 whole entry S384D, chain 1 of 3) above, with D384S counted along it
T1 sequence (P15927 whole entry, chain 2 of 3): as the sequence (P15927 whole entry, chain 2 of 3) above
T1 sequence (P35244 whole entry, chain 3 of 3): as the sequence (P35244 whole entry, chain 3 of 3) above

B1: 5'-FAM-(dT)20 (ssDNA)
DNA: TTTTTTTTTTTTTTTTTTTT
B1: binds (RPA (wild type) [1]); binds (RPA S384D [2]).

B2: 5'-FAM-(dT)40 (ssDNA)
DNA: TTTTTTTTTTTTTTTTTTTTTTTTTTTTTTTTTTTTTTTT
B2: binds (RPA (wild type) [1]); binds (RPA S384D [2]).

B3: (dT)97 (ssDNA)
DNA: TTTTTTTTTTTTTTTTTTTTTTTTTTTTTTTTTTTTTTTTTTTTTTTTTTTTTTTTTTTTTTTTTTTTTTTTTTTTTTTTTTTTTTTTTTTTTTTTT
B3: binds (RPA S384D [3]); binds (RPA (wild type) [4]).

B4: (dT)35 (ssDNA)
DNA: TTTTTTTTTTTTTTTTTTTTTTTTTTTTTTTTTTT
B4 was tested, and the binding result (RPA S384D [5]) was “binds” and the Kd (RPA (wild type) [6]) was 0.75 ± 0.4 nM.
